Source: paper PMC9959560

Tests used:
[1] = confocal colocalisation with TMEM165 and Calnexin, HeLa; settings: glycan lost; control: wild-type SF-eGFP
[2] = anisomycin chase 2-10 h, anti-FLAG WB, HeLa; settings: glycan lost; control: wild-type SF
[3] = anti-Sda KM694 WB of HeLa glycoproteins, normalised; settings: glycan lost; control: wild-type SF
[4] = WB of culture media, HeLa (data not shown); settings: glycan lost; control: wild-type SF
[5] = non-reducing SDS-PAGE and WB, dimer fraction, HeLa; settings: glycan lost; control: wild-type SF
[6] = anti-FLAG WB normalised to β-actin, HeLa; settings: glycan lost; control: wild-type SF
[7] = UDP-[3H]GalNAc transfer to fetuin, COS-7 lysates, normalised; settings: glycan lost; control: wild-type SF

B1: SF-B4GALNT2: N77Q (protein)
parent chain: MTSGGSRFLWLLKILVIILVLGIVGFMFGSMFLQAVFSSPKPELPSPAPGVQKLKLLPEERLRNLFSYDGIWLFPKNQCKCEANKEQGGYNFQDAYGQSDLPAVKARRQAEFEHFQRREGLPRPLPLLVQPNLPFGYPVHGVEVMPLHTVPIPGLQFEGPDAPVYEVTLTASLGTLNTLADVPDSVVQGRGQKQLIISTSDRKLLKFILQHVTYTSTGYQHQKVDIVSLESRSSVAKFPVTIRHPVIPKLYDPGPERKLRNLVTIATKTFLRPHKLMIMLRSIREYYPDLTVIVADDSQKPLEIKDNHVEYYTMPFGKGWFAGRNLAISQVTTKYVLWVDDDFLFNEETKIEVLVDVLEKTELDVVGGSVLGNVFQFKLLLEQSENGACLHKRMGFFQPLDGFPSCVVTSGVVNFFLAHTERLQRVGFDPRLQRVAHSEFFIDGLGTLLVGSCPEVIIGHQSRSPVVDSELAALEKTYNTYRSNTLTRVQFKLALHYFKNHLQCAA
**Q.** What does the source list for B1?
**A.** localisation_or_trafficking [1]: changes; degradation_or_half_life [2]: increases; enzymatic_activity [3]: no change; expression_or_secretion [4]: no change; oligomerisation [5]: decreases; expression_or_secretion [6]: decreases; enzymatic_activity [7]: decreases
